EC50 data for 2 substances are collected here from PMC6303327.

For test [1], the target named is Rfa3 OB domain (DBD-E), residues 1-99, without the C-terminal trimerisation helix (S. cerevisiae) (UniProt P26755). In words: MST; as the MST without ssDNA, but in the presence of excess ssDNA (dT10 at 2 µM in each binding reaction; grey trace); replicated twice; apparent EC50 from the Hill equation.
For test [2] the target is unchanged. As to the kind of experiment: MST; 50 nM NT-495-labelled DBD-E mixed with equal volumes of a dilution series of DBD-A; 20 mM Tris pH 7.5, 150 mM NaCl, 0.5 mM TCEP, 0.01% Tween-20, 0.1 mg/ml BSA; 25 °C; no ssDNA (black trace); apparent EC50 from the Hill equation.

Chain of Rfa3 OB domain (DBD-E), residues 1-99, without the C-terminal trimerisation helix (S. cerevisiae) (P26755 1-99): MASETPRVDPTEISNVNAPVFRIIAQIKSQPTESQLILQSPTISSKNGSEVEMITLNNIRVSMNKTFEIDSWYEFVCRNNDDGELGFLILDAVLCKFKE
Chain of Rfa1 DNA-binding domain A (DBD-A), residues 178-294 (P22336 178-294): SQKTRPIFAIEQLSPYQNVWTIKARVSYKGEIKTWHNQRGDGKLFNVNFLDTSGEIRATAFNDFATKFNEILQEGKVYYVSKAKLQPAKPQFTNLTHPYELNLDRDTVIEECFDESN

As for “Rfa1 DNA-binding domain A (DBD-A), residues 178-294 (from UniProt P22336 178-294) (domain or fragment)”, the EC50 (commonly the concentration at which the effect is half-maximal) in test [1] was 84 µM; in test [2] it was 96 µM.
The corresponding values for “Rfa1 DNA-binding domain A (DBD-A), residues 178-294, phosphomimetic S178D mutant (from UniProt P22336 178-294) (domain or fragment)” are 25 µM and 23 µM.
